Our source for the stoichiometry N values is article PMC12589563.

The assay has as its target KCNQ1 of the KCNQ1APO structure (human) (UniProt P51787). Put plainly: cryo-EM structure; human KCNQ1 with CaM, apo state; C4 symmetry, 2.5 Å.

In the case of “KCNQ1 of the KCNQ1APO structure (from UniProt P51787 1-676) (natural protein)”, the stoichiometry N (as a rule, the number of molecules, sites or subunits per partner or assembly) turned out to be 4.
